Laboratory results: US7521540B2, “CYR61 compositions and methods” (Munin Corporation, priority 1996, dated 2009)

What was measured:
αVβ3 integrin = target: T1, αVβ3 integrin (Homo sapiens, UniProt P05106+P06756); test: Integrin binding assay (ligand-receptor ELISA); conditions: 1 μg/ml Cyr61 or 0.1 μg/ml vitronectin
T1 construct: αVβ3 integrin purification from HUVE cell lysates was done as described in Pytela et al; endogenous in cells; host or cells: HUVE cells
Method: αVβ3 integrin purification from HUVE cell lysates was done as described in Pytela et al., Meth. Enzynmol., 144:475-489 (1987). Briefly, 10^8 cells were lysed in 1 ml of PBS containing 1 mM CaCl2, 1 mM MgCl2, 0.5 mM PMSF and 100 mM octylglucoside. […] The purity of the integrin was determined by SDS-PAGE under non-reducing conditions, followed by silver staining.
The integrin binding assay was developed in accordance with the disclosures in Brooks et al., Cell 85:683-693 (1996), and Lam, S. C-T (1992). […] Bound proteins were detected by specific polyclonal antisera (anti-Cyr61 antiserum was diluted 1:500 and anti-vitronectin antiserum was diluted 1:1000 in PBS containing 1 mM CaCl2, 1 mM MgCl2, and 5 mg/ml BSA) followed by a secondary antibody-horseradish peroxidase conjugate (1:20000 in the same buffer). […] Horseradish peroxidase (HRP) was detected with an HRP immunoassay kit (Bio-Rad Laboratories). The colorimetric reaction was developed for 15-30 minutes at room temperature, stopped by the addition of H2SO4, and the absorbance at 450 nm was measured. […]

Limb mesenchymal cells = test: Limb bud mesenchymal cell attachment; format: cell-based, mouse; conditions: within 1 hour of plating
Method: Cyr61, fibronectin (Gibco), or tenascin (Gibco) were diluted in 0.1% protease-free bovine serum albumin (BSA) in PBS with 0.5 mM PMSF, to a final concentrations of 10 or 50 μg/ml. A 10 μl drop/well was placed in a non-tissue culture treated 24-well plate (Corning), and incubated at room temperature for 2 hours. The wells were blocked with 1% BSA in PBS for 1 hour at room temperature, and rinsed with serum-free MEM (Modified Eagle's Medium). Limb mesenchymal cells, suspended at 5×10^5 cell/ml in serum-free MEM, were added at a volume of 400 μl/well, and incubated at 37° C., 5% CO2 for 1 or 3 hours. At each time point, the cell suspension was removed, the wells were rinsed with MEM and the remaining adherent cells were photographed.

HUVE cells = test: Gel matrix invasion and tube formation; format: cell-based, human; conditions: collagen or fibrin gels
Method: The end product of in vitro angiogenesis is a well-defined network of capillary-like tubes. When cultured on gel matrices, e.g., collagen, fibrin, or Matrigel gels, endothelial cells must first invade the matrix before forming mature vessels.
In some wells, Cyr61 was mixed into the gel matrix before gelation (final concentration 10 μg/ml), while in other wells, Cyr61 was not in the gel matrix but was added as part of the nutrient medium (similar range of concentrations as in the matrix) after the cells reached confluency. HUVE cells were seeded onto the gel matrix surface at 5×10^4 cells per well in Ham's F12K medium [GIBCO-BRL, Inc.] containing 10% fetal bovine serum, 100 μg/ml heparin, and 30 μg/ml endothelial cell growth factor. When the cells reached confluency, the medium was removed, the cells were rinsed with PBS, and fresh medium without endothelial cell growth factor was supplied. Some cultures received purified recombinant Cyr61, while others received Cyr61 and polyclonal anti-Cyr61 antibodies. […]
Invasion of the gel matrix was quantified about 4-7 days after treatment of the confluent cultures. […] Invasion was quantified by measuring the total length of all cell cords that penetrated beneath the surface monolayer. Results were expressed as the mean length in microns per field for at least 3 randomly selected fields from each of at least 3 separate experiments. […]

T1 sequence (P06756 31-889 limits assumed): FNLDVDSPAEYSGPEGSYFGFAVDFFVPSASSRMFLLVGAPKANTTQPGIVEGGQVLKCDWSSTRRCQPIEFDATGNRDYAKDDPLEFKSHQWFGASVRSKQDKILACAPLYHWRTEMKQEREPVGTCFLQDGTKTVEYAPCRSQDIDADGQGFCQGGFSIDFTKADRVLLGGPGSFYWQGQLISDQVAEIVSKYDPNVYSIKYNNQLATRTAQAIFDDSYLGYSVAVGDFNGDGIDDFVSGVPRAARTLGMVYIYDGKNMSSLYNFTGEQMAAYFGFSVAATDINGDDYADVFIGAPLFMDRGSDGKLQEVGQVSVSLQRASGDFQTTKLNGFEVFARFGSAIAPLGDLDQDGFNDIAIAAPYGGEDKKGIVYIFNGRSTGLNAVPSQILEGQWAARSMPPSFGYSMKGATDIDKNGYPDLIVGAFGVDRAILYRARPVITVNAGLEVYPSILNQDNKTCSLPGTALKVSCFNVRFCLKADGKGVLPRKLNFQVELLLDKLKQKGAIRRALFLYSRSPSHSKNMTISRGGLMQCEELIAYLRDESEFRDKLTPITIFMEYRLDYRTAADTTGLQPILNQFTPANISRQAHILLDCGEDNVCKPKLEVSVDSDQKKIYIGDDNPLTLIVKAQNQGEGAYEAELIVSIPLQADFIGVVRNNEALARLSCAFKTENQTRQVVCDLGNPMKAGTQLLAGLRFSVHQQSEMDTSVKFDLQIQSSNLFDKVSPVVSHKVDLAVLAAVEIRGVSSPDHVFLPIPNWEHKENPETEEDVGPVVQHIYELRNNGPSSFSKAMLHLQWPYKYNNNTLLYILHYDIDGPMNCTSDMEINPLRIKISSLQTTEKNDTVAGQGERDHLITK
T1 sequence (P06756 891-1048 partner limits assumed): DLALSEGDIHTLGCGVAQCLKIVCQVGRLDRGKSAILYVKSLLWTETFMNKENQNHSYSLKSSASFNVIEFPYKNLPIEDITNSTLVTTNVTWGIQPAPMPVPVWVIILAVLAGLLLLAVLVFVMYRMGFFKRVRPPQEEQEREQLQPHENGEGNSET
T1 sequence (P05106 27-788): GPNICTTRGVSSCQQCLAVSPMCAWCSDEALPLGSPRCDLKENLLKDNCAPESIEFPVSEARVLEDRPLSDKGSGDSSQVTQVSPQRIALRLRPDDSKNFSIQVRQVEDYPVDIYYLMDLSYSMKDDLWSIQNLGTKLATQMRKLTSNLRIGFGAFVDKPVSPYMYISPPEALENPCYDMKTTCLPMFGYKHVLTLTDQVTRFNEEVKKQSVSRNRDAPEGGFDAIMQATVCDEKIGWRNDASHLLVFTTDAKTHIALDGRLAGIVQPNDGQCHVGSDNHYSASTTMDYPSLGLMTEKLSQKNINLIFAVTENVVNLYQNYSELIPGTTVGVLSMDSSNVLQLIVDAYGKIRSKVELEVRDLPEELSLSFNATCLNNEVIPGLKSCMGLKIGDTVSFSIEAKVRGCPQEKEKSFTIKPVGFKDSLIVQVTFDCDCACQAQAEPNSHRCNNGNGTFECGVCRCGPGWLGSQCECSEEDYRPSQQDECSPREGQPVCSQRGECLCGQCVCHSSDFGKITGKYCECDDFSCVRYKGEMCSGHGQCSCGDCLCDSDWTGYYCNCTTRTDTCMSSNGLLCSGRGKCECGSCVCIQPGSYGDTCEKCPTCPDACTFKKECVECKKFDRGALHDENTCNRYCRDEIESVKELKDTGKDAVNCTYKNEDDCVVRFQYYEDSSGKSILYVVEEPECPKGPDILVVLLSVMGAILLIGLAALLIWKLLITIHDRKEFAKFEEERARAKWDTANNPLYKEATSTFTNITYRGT

B1: Cyr61: Cysteine-rich ECM signaling protein; murine sequence SEQ ID NO:2, recombinant from Baculovirus-infected Sf9 cells (protein, listed as Mus musculus)
chain: MSSSTFRTLAVAVTLLHLTRLALSTCPAACHCPLEAPKCAPGVGLVRDGCGCCKVCAKQLNEDCSKTQPCDHTKGLECNFGASSTALKGICRAQSEGRPCEYNSRIYQNGESFQPNCKHQCTCIDGAVGCIPLCPQELSLPNLGCPNPRLVKVSGQCCEEWVCDEDSIKDSLDDQDDLLGLDASEVELTRNNELIAIGKGSSLKRLPVFGTEPRVLFNPLHAHGQKCIVQTTSWSQCSKSCGTGISTRVTNDNPECRLVKETRICEVRPCGQPVYSSLKKGKKCSKTKKSPEPVRFTYAGCSSVKKYRPKYCGSCVDGRCCTPLQTRTVKMRFRCEDGEMFSKNVMMIQSCKCNYNCPHPNEASFRLYSLFNDIHKFRD
binding to immobilized αVβ3 integrin (αVβ3 integrin): bound to the immobilized integrin
attachment morphology of limb mesenchymal cells (Limb mesenchymal cells): adhered as clusters of rounded cells
matrix invasion and tube formation (HUVE cells): induce matrix invasion and tube formation
